{"source": "patent US20200407442A1", "about": "(WUXI BIOLOGICS IRELAND, published 2020)", "binders": {"B1": {"name": "1.53.3-uAb-IgG4k (antibody, V domains shown)", "VH": "QVQLQQWGAGLLKPSETLSLTCGVYGGSFSGYYWSWIRQPPGMGLEWIGEINHRGNTNYNPSLKSRVTISEDTSKNQFSLRLSSVTAADTAVYFCTRGEDYSDYDYYGDFWGQGTLVTVSS", "VL": "EIVLTQSPATLSLSQGERATLSCRASQSISSYLAWYQQKPGQAPRLLIYAASNRATGIPARFSGSGSGTDFTLTISSLEPEDFAIYYCQQRSNWPLTFGGGTKVEIK", "notes": "Fully human antibody from OMT rats; IgG4 kappa by its name"}, "B2": {"name": "3.40.19-uAb-IgG4L (antibody, V domains shown)", "VH": "QLQLQESGPGLVKPSETLSLTCTVSGDSISSTSYYWGWIRQPPGKGLEWIGSFYYSGSTYYNPSLKSRVTISVDTSKNQFSLKLNSVTAADTAVYYCARMQLWSYDVDVWGQGTTVTVSS", "VL": "QSALTQPASVSGSPGQSITISCTGTSSDVGGYDYVAWYQQHPGKVPKLMIYDVSERPSGVSNRFSGSKSGNTASLTISGLQAEDEADYYCSSYTSTTTLVVFGGGTKLSVL", "notes": "Fully human antibody from OMT rats; IgG4 lambda by its name; also called 3.40.19-uAb-hIgG4L"}}, "key": {"[1]": {"molecular_target": "T1, full-length human LAG-3 on cells (human, UniProt P18627 23-525)", "T1 construct": "Expressed on Flp-In-293, CHO or 293F transfectants; also called hPro1.FL; cell surface human LAG-3", "T1 sequence": "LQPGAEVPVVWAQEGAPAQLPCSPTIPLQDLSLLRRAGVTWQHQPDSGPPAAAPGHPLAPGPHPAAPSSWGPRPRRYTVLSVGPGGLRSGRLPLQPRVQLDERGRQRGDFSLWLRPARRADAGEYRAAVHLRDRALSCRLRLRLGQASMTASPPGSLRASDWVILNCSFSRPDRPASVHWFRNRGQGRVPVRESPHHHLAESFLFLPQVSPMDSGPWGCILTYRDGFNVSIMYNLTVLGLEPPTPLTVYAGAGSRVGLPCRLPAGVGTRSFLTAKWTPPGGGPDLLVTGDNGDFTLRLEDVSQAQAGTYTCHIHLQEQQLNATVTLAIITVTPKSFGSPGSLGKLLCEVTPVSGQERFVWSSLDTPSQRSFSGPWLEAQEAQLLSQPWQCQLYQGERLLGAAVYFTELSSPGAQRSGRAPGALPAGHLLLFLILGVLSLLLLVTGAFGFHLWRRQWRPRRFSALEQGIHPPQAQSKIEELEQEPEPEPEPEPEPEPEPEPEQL", "assay": "FACS affinity on Flp-In-293 cells expressing human LAG-3", "experimental": "Antibody binding affinity to cell surface LAG-3 was measured by FACS analysis. Flp-In-293 cells expressing human LAG-3 were transferred in to 96-well U-bottom plates at a density of 5×10⁵ cells/mL. Tested antibodies were serially diluted in wash buffer (1×PBS/1%BSA) and incubated with cells at 4° C. for 1 h. The secondary antibody goat anti-human IgG Fc FITC (3.5 moles FITC per mole IgG) was added and incubated at 4° C. in the dark for 0.5 h. The cells were then washed once and resuspended in 1×PBS/1%BSA, and analyzed by flow cytometry. Fluorescence intensity will be converted to bound molecules/cell based on the quantitative beads (QuantumTM MESF Kits, Bangs Laboratories, Inc.). Affinity was calculated using Graphpad Prism 5."}, "[2]": {"molecular_target": "T2, Variant 4: xPro1.FL-x4 (human; mouse)", "T2 construct": "Chimeric full-length LAG-3 on transfected 293F cells", "T2 chain": "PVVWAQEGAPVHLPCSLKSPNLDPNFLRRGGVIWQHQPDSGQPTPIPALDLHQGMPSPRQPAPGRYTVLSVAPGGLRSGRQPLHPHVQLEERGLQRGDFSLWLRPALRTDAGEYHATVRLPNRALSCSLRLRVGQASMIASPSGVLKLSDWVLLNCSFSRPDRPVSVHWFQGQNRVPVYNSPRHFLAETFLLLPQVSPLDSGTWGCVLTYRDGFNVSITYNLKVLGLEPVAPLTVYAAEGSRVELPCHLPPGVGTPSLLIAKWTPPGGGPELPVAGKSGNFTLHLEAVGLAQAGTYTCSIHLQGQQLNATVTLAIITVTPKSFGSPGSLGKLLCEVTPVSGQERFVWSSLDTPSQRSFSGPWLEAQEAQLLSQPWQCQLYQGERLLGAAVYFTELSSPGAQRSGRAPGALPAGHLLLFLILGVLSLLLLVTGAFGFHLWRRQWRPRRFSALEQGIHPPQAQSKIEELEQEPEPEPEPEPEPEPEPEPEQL", "assay": "FACS, 1 ug/mL antibody, transfected 293F cells", "experimental": "(§1) The 10 variants were cloned into pcDNA3 vector and used for 293F cell transfection. Briefly, 293F cells were diluted to a density of 1×10⁶ cells/mL with FreeStyle 293F medium and aliquots of 3 mL/well were added to 24-well plate. Transfections were performed using 293fectin reagent (Life Technologies). For each transfection, 3 μg of DNA were diluted in 150 μOpti-MEM I-reduced serum medium (Life Technologies), and then combined with 6μL 293fectin reagent pre-diluted in 150 μL Opti-MEM I reduced serum medium. The DNA/[…] mixture was allowed to stand at 25° C. for 20 min before being added to the culture. The transfected cells were analyzed by flow cytometry at 48 h post-transfection.\n(§2) Binding of antibodies to chimeric LAG-3 variants or full length human/mouse LAG-3 was analyzed by flow cytometry. Briefly, 1 μg/mL antibodies were incubated with chimeric LAG-3-expressing transfected 293F cells for 1 hour at 4° C., and then incubated with 3 μg/mL goat anti-human IgG Fc R-PE (Jackson) for 40 min at 4° C. Cells were analyzed with flow cytometer."}, "[3]": {"molecular_target": "T3, Variant 7: xPro1.FL-x7 (human; mouse)", "T3 construct": "Chimeric full-length LAG-3 on transfected 293F cells", "T3 chain": "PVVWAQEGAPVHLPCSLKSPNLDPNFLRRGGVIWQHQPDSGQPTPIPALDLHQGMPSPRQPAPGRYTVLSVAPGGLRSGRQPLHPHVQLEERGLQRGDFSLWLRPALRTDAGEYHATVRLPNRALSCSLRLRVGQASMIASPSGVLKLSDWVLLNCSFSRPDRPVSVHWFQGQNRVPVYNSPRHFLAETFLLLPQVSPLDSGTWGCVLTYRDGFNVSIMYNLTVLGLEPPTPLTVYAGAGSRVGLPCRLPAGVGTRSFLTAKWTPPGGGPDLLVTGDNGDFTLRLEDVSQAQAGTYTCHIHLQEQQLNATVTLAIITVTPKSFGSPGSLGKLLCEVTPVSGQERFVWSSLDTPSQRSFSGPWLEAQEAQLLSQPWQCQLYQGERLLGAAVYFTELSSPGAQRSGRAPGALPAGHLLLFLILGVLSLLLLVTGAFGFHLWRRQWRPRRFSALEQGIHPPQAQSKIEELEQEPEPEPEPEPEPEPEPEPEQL", "assay": "FACS, 1 ug/mL antibody, transfected 293F cells", "experimental": "as §1, §2"}, "[4]": {"molecular_target": "T1, full-length human LAG-3 on cells", "assay": "FACS competition on Flp-In-293 cells expressing human LAG-3: biotinylated BMK1 at 1 ug/mL, serially diluted antibody, Streptavidin-PE", "experimental": "The binding epitope of LAG-3 antibodies was binned against benchmark antibodies BMK1, BMK7 and BMK5 by FACS assay. Flp-In-293 cells expressing human LAG-3 at the cell surface were incubated with biotinylated benchmark antibodies at concentration of 1 μg/mL for 1 hour, followed by the adding of serially diluted LAG-3 antibodies. Streptavidin-PE antibody (Jackson Immunoresearch Lab) was used to detect the binding of benchmark antibodies to cells. The MFI was evaluated by flow cytometry and analyzed by FlowJo."}}, "data": [{"binder": "B1", "values": [{"measurement": "Kd", "setting": "[1]", "result": 0.16, "unit": "nM"}, {"measurement": "MFI", "setting": "[2]", "result": 41}, {"measurement": "PE+ %", "setting": "[2]", "result": 1.42, "unit": "%"}, {"measurement": "MFI", "setting": "[3]", "result": 39.3}, {"measurement": "PE+ %", "setting": "[3]", "result": 1.52, "unit": "%"}, {"measurement": "IC50 (read off the curve)", "setting": "[4]", "result": "~5", "unit": "nM"}]}, {"binder": "B2", "values": [{"measurement": "Kd", "setting": "[1]", "result": 0.053, "unit": "nM"}]}]}
